The target of this experiment is T1, FcγRIa (human, UniProt P12314 16-292).
T1 construct: extracellular domain; also called FcgRI; FcgRIa; not shown: His tag attached to the C terminus
Put plainly: SPR (Biacore), relative binding; control HoCon Ab GpH7-B3/GpL16-k0.

This note sets out measurements from patent US20150344570A1 (published 2015).

T1 sequence (P12314 16-292): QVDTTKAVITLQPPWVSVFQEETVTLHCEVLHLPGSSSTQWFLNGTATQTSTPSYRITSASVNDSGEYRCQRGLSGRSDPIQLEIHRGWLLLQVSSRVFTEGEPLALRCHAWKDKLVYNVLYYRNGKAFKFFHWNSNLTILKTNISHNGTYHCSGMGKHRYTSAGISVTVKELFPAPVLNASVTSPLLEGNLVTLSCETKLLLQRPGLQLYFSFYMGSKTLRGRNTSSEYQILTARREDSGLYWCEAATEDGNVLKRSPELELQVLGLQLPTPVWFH

B1: GpH7-B3 variant K326_09D/GpL16-k0 (antibody, human IgG1, kappa)
heavy: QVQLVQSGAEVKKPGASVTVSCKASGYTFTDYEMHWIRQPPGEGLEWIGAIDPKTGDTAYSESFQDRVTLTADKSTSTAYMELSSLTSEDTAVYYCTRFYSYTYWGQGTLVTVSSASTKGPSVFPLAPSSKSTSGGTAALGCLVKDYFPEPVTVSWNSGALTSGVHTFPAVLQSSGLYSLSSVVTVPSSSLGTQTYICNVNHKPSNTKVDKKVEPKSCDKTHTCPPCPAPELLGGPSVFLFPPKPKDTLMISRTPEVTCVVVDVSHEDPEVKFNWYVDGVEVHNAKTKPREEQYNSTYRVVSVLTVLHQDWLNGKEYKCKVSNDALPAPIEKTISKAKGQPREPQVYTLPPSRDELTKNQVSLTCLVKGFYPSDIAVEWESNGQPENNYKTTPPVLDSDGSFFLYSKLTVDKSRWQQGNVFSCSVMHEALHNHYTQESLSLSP
light: DIVMTQSPLSLPVTPGEPASISCQASESLVHSNRNTYLHWYLQKPGQSPQLLIYKVSNRFSGVPDRFSGSGSGTDFTLKISRVEAEDVGVYYCSQNTHVPPTFGQGTKVEIERTVAAPSVFIFPPSDEQLKSGTASVVCLLNNFYPREAKVQWKVDNALQSGNSQESVTEQDSKDSTYSLSSTLTLSKADYEKHKVYACEVTHQGLSSPVTKSFNRGEC
notes: Alteration in both H chains; also called Ho Ab K326_09D
As for B1, the Ho/Con_1a was 106 % of control (=100).

B2: GpH7-B3 variant K334_02A/GpL16-k0 (antibody, human IgG1, kappa)
heavy: not shown
light: B1 light
notes: Alteration in both H chains; also called Ho Ab K334_02A
In the case of B2, the Ho/Con_1a was 106 % of control (=100).

B3: GpH7-B3 variant P271_10E/GpL16-k0 (antibody, human IgG1, kappa)
heavy: not shown
light: B1 light
notes: Alteration in both H chains; also called Ho Ab P271_10E
On to B3, for which the Ho/Con_1a was 103 % of control (=100).

B4: GpH7-B3 variant K334_03V/GpL16-k0 (antibody, human IgG1, kappa)
heavy: not shown
light: B1 light
notes: Alteration in both H chains; also called Ho Ab K334_03V
In the case of B4, the Ho/Con_1a is 105 % of control (=100).

B5: GpH7-B3 variant K334_19Q/GpL16-k0 (antibody, human IgG1, kappa)
heavy: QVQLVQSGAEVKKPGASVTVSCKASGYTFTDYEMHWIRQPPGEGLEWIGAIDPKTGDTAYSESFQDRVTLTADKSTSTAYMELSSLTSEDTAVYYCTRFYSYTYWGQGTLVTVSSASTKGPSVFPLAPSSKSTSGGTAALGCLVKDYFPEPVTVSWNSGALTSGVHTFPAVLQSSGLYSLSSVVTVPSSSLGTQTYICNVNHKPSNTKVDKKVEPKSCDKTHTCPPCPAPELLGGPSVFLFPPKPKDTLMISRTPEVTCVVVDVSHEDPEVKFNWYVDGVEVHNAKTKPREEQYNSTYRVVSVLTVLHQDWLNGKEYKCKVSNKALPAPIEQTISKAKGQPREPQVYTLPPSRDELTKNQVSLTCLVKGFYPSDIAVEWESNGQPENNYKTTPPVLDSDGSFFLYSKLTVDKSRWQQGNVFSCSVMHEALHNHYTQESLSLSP
light: B1 light
notes: Alteration in both H chains; also called Ho Ab K334_19Q
For the molecule B5, the Ho/Con_1a was 106 % of control (=100).

B6: GpH7-B3 variant K334_18N/GpL16-k0 (antibody, human IgG1, kappa)
heavy: not shown
light: B1 light
notes: Alteration in both H chains; also called Ho Ab K334_18N
For B6, the Ho/Con_1a is 108 % of control (=100).

B7: GpH7-B3 variant L328_15Y/GpL16-k0 (antibody, human IgG1, kappa)
heavy: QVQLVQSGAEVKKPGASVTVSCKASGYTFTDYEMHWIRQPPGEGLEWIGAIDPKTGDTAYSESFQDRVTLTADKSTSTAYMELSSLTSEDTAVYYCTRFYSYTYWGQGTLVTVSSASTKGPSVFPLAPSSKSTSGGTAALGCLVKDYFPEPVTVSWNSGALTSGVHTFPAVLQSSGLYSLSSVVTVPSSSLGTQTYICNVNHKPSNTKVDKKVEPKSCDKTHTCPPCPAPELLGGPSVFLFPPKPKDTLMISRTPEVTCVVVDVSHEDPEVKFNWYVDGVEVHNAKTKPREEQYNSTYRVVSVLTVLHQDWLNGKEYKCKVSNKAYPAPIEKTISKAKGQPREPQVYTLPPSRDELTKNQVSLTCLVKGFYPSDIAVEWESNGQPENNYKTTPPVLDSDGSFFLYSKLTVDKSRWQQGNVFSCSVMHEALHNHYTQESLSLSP
light: B1 light
notes: Alteration in both H chains; also called Ho Ab L328_15Y
As for B7, the Ho/Con_1a was 104 % of control (=100).

B8: GpH7-B3 variant K334_04F/GpL16-k0 (antibody, human IgG1, kappa)
heavy: not shown
light: B1 light
notes: Alteration in both H chains; also called Ho Ab K334_04F
Regarding B8, the Ho/Con_1a is 106 % of control (=100).

B9: GpH7-B3 variant K326_19Q/GpL16-k0 (antibody, human IgG1, kappa)
heavy: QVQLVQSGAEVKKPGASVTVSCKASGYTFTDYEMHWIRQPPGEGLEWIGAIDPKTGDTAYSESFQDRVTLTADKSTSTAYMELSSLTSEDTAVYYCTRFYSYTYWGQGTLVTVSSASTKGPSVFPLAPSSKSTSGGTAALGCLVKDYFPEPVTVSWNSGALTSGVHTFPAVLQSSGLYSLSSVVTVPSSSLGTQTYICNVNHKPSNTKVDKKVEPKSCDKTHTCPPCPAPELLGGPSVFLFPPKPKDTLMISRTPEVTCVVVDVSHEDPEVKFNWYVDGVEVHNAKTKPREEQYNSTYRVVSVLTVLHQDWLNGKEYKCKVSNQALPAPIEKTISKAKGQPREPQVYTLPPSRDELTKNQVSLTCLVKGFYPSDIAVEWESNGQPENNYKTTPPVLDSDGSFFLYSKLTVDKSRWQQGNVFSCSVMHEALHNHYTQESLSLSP
light: B1 light
notes: Alteration in both H chains; also called Ho Ab K326_19Q
For B9, the Ho/Con_1a was 105 % of control (=100).

B10: GpH7-B3 variant K334_09D/GpL16-k0 (antibody, human IgG1, kappa)
heavy: not shown
light: B1 light
notes: Alteration in both H chains; also called Ho Ab K334_09D
As to B10, the Ho/Con_1a is 108 % of control (=100).

B11: GpH7-B3 variant K334_07I/GpL16-k0 (antibody, human IgG1, kappa)
heavy: not shown
light: B1 light
notes: Alteration in both H chains; also called Ho Ab K334_07I
With B11, the Ho/Con_1a was 107 % of control (=100).

B12: GpH7-B3 variant K326_20W/GpL16-k0 (antibody, human IgG1, kappa)
heavy: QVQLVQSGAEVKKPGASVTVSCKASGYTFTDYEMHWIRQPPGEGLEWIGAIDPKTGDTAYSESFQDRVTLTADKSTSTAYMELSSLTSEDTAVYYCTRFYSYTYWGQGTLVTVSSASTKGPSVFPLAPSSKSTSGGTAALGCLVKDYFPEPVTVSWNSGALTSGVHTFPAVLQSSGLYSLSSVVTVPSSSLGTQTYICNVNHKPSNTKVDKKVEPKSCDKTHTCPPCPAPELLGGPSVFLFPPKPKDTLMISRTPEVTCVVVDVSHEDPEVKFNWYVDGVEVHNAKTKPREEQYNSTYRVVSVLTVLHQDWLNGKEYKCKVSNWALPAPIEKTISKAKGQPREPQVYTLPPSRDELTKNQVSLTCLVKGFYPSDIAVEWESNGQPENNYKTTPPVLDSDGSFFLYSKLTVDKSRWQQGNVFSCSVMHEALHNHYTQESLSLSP
light: B1 light
notes: Alteration in both H chains; also called Ho Ab K326_20W
In the case of B12, the Ho/Con_1a was 104 % of control (=100).

B13: GpH7-B3 variant P271_08L/GpL16-k0 (antibody, human IgG1, kappa)
heavy: not shown
light: B1 light
notes: Alteration in both H chains; also called Ho Ab P271_08L
Take B13: the Ho/Con_1a was 103 % of control (=100).

B14: GpH7-B3 variant K334_16H/GpL16-k0 (antibody, human IgG1, kappa)
heavy: not shown
light: B1 light
notes: Alteration in both H chains; also called Ho Ab K334_16H
B14: the Ho/Con_1a was 106 % of control (=100).

B15: GpH7-B3 variant K334_05P/GpL16-k0 (antibody, human IgG1, kappa)
heavy: not shown
light: B1 light
notes: Alteration in both H chains; also called Ho Ab K334_05P
Take B15: the Ho/Con_1a is 106 % of control (=100).

B16: GpH7-B3 variant K334_14T/GpL16-k0 (antibody, human IgG1, kappa)
heavy: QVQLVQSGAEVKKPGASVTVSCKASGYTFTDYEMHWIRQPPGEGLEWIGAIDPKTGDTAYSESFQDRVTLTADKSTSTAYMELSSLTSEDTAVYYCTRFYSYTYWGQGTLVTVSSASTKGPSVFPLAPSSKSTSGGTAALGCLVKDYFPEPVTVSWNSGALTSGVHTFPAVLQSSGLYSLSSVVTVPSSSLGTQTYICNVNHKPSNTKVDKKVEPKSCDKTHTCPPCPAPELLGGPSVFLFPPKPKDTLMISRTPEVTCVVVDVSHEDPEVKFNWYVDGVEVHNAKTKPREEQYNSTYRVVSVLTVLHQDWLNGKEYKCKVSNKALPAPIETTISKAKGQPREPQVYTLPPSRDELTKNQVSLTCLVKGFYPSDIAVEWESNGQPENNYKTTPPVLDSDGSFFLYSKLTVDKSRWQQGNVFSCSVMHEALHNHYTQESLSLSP
light: B1 light
notes: Alteration in both H chains; also called Ho Ab K334_14T
In the case of B16, the Ho/Con_1a is 106 % of control (=100).

B17: GpH7-B3 variant K326_10E/GpL16-k0 (antibody, human IgG1, kappa)
heavy: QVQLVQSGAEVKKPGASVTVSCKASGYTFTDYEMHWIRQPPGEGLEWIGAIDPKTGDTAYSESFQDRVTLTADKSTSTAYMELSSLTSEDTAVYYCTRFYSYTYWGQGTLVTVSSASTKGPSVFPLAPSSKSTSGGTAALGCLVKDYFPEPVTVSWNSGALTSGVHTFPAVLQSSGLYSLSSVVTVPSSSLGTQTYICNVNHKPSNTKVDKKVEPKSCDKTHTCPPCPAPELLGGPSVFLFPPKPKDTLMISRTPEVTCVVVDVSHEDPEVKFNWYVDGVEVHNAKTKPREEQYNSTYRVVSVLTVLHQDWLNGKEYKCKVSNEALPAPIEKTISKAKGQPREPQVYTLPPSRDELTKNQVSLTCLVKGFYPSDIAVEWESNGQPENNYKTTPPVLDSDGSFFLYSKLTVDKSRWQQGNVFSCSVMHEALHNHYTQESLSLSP
light: B1 light
notes: Alteration in both H chains; also called Ho Ab K326_10E
For B17, the Ho/Con_1a was 105 % of control (=100).

B18: GpH7-B3 variant K334_13S/GpL16-k0 (antibody, human IgG1, kappa)
heavy: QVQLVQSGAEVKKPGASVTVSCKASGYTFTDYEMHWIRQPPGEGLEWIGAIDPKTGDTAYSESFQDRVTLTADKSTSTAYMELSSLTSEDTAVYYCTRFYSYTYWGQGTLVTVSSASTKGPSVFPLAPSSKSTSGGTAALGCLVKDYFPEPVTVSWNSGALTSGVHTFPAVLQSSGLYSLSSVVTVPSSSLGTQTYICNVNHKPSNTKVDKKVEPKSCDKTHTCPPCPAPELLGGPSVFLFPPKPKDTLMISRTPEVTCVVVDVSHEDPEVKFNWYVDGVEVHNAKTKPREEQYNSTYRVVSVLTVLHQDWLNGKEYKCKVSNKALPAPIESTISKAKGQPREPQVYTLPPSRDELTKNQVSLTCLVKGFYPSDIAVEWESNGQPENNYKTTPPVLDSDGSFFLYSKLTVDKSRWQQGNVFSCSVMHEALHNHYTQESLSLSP
light: B1 light
notes: Alteration in both H chains; also called Ho Ab K334_13S
As for B18, the Ho/Con_1a is 106 % of control (=100).

B19: GpH7-B3 variant K334_08L/GpL16-k0 (antibody, human IgG1, kappa)
heavy: not shown
light: B1 light
notes: Alteration in both H chains; also called Ho Ab K334_08L
Regarding B19, the Ho/Con_1a is 108 % of control (=100).

B20: GpH7-B3 variant K334_15Y/GpL16-k0 (antibody, human IgG1, kappa)
heavy: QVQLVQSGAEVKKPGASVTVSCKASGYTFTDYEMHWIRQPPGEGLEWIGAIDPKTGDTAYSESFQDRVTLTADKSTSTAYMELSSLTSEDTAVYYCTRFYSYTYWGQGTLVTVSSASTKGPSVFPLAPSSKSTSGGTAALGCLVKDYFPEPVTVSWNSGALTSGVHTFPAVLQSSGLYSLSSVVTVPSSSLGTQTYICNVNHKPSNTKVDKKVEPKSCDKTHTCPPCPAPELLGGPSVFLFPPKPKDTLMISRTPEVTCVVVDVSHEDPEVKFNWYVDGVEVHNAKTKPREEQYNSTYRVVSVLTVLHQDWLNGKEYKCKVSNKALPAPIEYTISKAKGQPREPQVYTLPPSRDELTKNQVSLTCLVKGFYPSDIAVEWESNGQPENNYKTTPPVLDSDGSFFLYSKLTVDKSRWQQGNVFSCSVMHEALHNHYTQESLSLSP
light: B1 light
notes: Alteration in both H chains; also called Ho Ab K334_15Y
As for B20, the Ho/Con_1a was 107 % of control (=100).

B21: GpH7-B3 variant P271_01G/GpL16-k0 (antibody, human IgG1, kappa)
heavy: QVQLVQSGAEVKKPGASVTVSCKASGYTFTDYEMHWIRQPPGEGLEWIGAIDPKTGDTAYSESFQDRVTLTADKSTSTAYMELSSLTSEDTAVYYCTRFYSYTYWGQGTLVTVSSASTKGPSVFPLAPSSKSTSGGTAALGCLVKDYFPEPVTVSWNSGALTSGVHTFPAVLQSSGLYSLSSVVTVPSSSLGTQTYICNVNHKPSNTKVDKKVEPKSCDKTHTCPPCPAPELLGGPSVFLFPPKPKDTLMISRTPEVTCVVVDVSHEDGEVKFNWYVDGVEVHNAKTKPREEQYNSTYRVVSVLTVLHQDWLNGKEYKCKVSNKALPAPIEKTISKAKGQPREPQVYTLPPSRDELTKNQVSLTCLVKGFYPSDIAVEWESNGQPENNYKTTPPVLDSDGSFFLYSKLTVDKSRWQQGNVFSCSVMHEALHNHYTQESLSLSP
light: B1 light
notes: Alteration in both H chains; also called Ho Ab P271_01G
Take B21: the Ho/Con_1a is 106 % of control (=100).
